5 molecules from US8409825B2, “Method for high-level secretory production of protein” (National Institute of Advanced Industrial Science and …, priority 2007, dated 2013) can be followed below.

“And” between values parts separate entries of the source, which are not always exact repeats. Equal entries are not always repeated. Where two headings read alike, the source gives them in different places.

In one data set the test system is M. lysodeikticus. The data set is described as follows: Bacteriolytic activity of secreted human lysozyme. It is filed as biochemical. The following applies: Table 3; for Bacteriolytic activity: culture supernatant, clones 1 to 3, 10 minutes at room temperature, absorbance at 450 nm; for Specific activity: per total amount of protein in culture supernatant, clones 1 to 3. From the text:
The expression vector for the aMF secretory signal-fused hLyz gene, onaP21808, was introduced into the ona01206 strain into which no chaperone combination was introduced, a strain that constitutively expresses a combination of O. minuta-derived chaperone genes; i.e., OmPDI1, OmERO1, and OmKar2, (i.e., the ona44607 strain), and a strain that constitutively expresses a combination of human-derived chaperone genes; i.e., synthetic hPDI, synthetic hERO1-Lβ, and synthetic hGRP78, (i.e., the ona68908 strain). Three clones were arbitrarily selected from the resulting colonies and cultured.
Also, bacteriolytic activity was assayed in the following manner. Bacteria of M. lysodeikticus was used as a substrate, and it was suspended in 50 mM phosphate buffer to prepare a substrate solution with a concentration of 0.16 mg/ml. To 240 μl of this substrate solution, 10 μl of a culture supernatant (the secreted human lysozyme) was added, and the mixture was incubated at room temperature for 10 minutes. Thereafter, the absorbance at 450 nm was assayed. […] Thus, a unit of lysozyme activity was defined as the amount of an enzyme that is necessary for the absorbance at 450 nm to be lowered by 0.001 per minute. Also, the total amount of proteins in the culture supernatant was assayed using the DC protein assay kit II (Bio-Rad, 500-0112JA) using bovine serum albumin as the standard.

In data set [1] the test system is antibody-producing yeast strain (ona02306 strain). The following applies: for amount of antibody production: control 0.8 mg/l, FIG. 5.
Protocol: Control culture was carried out at an agitation speed of 310 rpm, an amplitude of 50 mm, at 30° C. for 2 days, 100 μl of 2× YP-P6-GG medium was added, and 100 μl of 2× YP-P6-GG medium was further added on day 3. In the case of culture involving single addition of a rhodanine-3-acetic acid derivative 1c, culture was carried out at an agitation speed of 310 rpm, an amplitude of 50 mm, at 30° C. for 2 days, 100 μl of 2× YP-P6-GG medium was added, and 100 μl of 2× YP-P6-GG medium containing 20 μM of 1c was further added on day 3. In the case of culture involving addition of a rhodanine-3-acetic acid derivative 1c twice, culture was carried out at an agitation speed of 310 rpm, an amplitude of 50 mm, at 30° C. for 2 days, 100 μl of 2× YP-P6-GG medium containing 20 μM of 1c was added, and 100 μl of 2× YP-P6-GG medium containing 20 μM of 1c was further added on day 3.
Yeast cells were removed from the culture product via centrifugation at 2,700×g and 4° C. for 5 minutes, and the resulting culture supernatant was designated as a sample of secreted antibody. The secreted and produced antibodies were subjected to quantitative assay via sandwich ELISA. TRAIL receptor proteins that were antigens of the anti-TRAIL receptor antibodies were adsorbed on a 96-well plate, the sample of secreted antibody was added, and detection was carried out using a peroxidase-labeled human IgG specific Fc antibody (Peroxidase-labeled affinity purified antibody to human IgG (Fc) (KPL, 04-10-20)) and the ABTS peroxidase substrate (KPL, 50-66-01).
Western blotting was carried out as follows. After the protein was subjected to SDS-PAGE under reducing and non-reducing conditions, the separated protein was blotted to a PVDF membrane, and the antibody heavy chain and the light chain were detected using Anti-human IgG (γ-chain specific) (Sigma, I-3382) and Goat anti human kappa b&f affinity purified (Bethyl, A-80-115A) as the primary antibodies. Peroxidase conjugated affinity purified anti-goat IgG (H&L) (Rabbit) (Rockland, #605-4313) was used as the secondary antibody. […]
Data set [2] has as its system S. cerevisiae ZUO1/YGR285C strain. The following applies: control strain.
Protocol: The S. cerevisiae ZUO1/YGR285C strain was sowed in 5 ml of YPAD medium (YPD medium containing 0.04% adenine (Sigma)), and yeast cells resulting from overnight culture at 30° C. and 310 rpm were used.
ST medium (500 μl) (Yeast Nitrogen Base and Ammonium sulfate medium containing 2% glucose, 0.04% adenine, and 0.3M KCl and lacking uracil and leucine (Sigma)) was applied onto a 96-deep well plate (Greiner, 780271), the transformant was sowed with the use of a toothpick, the top of the plate was sealed with CO2-permeable plate sealers (Greiner, 676051), and culture was carried out at an agitation speed of 310 rpm, an amplitude of 50 mm, at 30° C. for 3 days. Control culture was carried out by applying 1 ml of YPAD medium to a 96-deep well plate (Greiner, 780271). […] The culture solution that had been cultured in ST medium was sowed to a final concentration of 5%, and the top of the plate was sealed with CO2-permeable plate sealers (Greiner, 676051). Thereafter, culture was carried out at an agitation speed of 310 rpm, an amplitude of 50 mm, at 30° C. for 3 days. The culture supernatant was prepared from the culture solution and it was designated as a sample containing an antibody secreted and produced by yeast. […]
The test system of data set [3] is O. minuta PMT4-deficient strain (ona98808 strain). The following applies: 0.25 μM 1c (final concentration), FIG. 26.
Protocol: The antibody-producing strain was cultured in the following manner. With the use of 2× YP-P6-GG medium (the medium was prepared by dissolving 20 g of Difco yeast extract and 40 g of Bacto peptone in 900 ml of pure water, sterilizing the solution via steaming under pressure, and adding 100 ml of separately sterilized 10× phosphate buffer (pH 6.0) (1M KH2PO4, 0.15M (NH4)2SO4, 0.375N KOH), 10 ml of a separately sterilized 50% glucose solution, and 25 ml of separately sterilized 80% glycerine), 800 μl of 2× YP-P6-GG medium was introduced into a 96-deep well plate (Greiner, 780271), the strains were sowed with the use of a toothpick, and the top of the plate was sealed with CO2-permeable plate sealers (Greiner, 676051). […]
Yeast cells were removed from the culture product via centrifugation at 2,700×g and 4° C. for 5 minutes, and the resulting culture supernatant was designated as a sample of secreted antibody. The secreted and produced antibodies were subjected to quantitative assay via sandwich ELISA. […] After the protein was subjected to SDS-PAGE under reducing and non-reducing conditions, the separated protein was blotted to a PVDF membrane, and the antibody heavy chain and light chain were detected using Anti-human IgG (γ-chain specific) (Sigma, I-3382) and Goat anti human kappa b&f affinity purified (Bethyl, A-80-115A) as the primary antibodies. […]
Data set [4] concerns the target T1, human alpha-2,3-sialic acid transferase (ST3GalI) (Homo sapiens, UniProt Q11201).
T1 construct: The catalyst domain of the ST3GalI gene was first amplified via PCR; His6 (N); made in house; host or cells: Ogataea minuta TK10-1-2 derived strains (YT-2 to YT-7), with or without co-expressed O. minuta chaperones; culture supernatant used as crude enzyme
T1 sequence (Q11201 35-340 limits assumed): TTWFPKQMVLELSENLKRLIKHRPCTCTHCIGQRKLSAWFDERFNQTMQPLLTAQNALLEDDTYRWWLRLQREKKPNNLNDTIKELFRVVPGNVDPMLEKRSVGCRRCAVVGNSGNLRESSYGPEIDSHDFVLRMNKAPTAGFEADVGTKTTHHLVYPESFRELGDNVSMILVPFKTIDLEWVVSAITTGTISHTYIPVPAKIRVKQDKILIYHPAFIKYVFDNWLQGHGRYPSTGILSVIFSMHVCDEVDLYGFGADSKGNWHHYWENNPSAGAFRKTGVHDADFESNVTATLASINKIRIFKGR
In words: Sialic acid transferase (ST3GalI) enzyme activity assay of crude enzyme solution, HPLC, core 1-pNP substrate. It is filed as biochemical. The conditions noted are these: Table 2, culture supernatant, assayed with the elapse of time. The procedure: The YT-2 strain and the YT-3 strain were inoculated in 5 ml of YPAD+KCl medium (2% polypeptone, 1% yeast extract, 2% glucose, adenine (40 mg/l), 0.3 M potassium chloride), and preculture was carried out at 30° C. overnight. Subsequently, 1 ml of a preculture solution was inoculated in 150 ml of YPAD+KCl medium, and culture was carried out at 30° C. for 48 hours. The strains were recovered, resuspended in 100 ml of BMMY+2% casamino acid medium (1% yeast extract, 2% polypeptone, 1.34% Yeast Nitrogen Base without amino acids (Difco), 0.1 M KPi (pH 6.0), 2% casamino acid, 1% methanol), and cultured at 20° C. for 96 hours. Methanol was added to a concentration of 0.5% every 12 hours. After the completion of culture, the culture product was subjected to centrifugation to remove yeast cells, and the resulting solution was designated as a crude enzyme solution.
Enzyme activity was assayed in the following manner. A crude enzyme solution (2 μl) was added to 18 μl of a reaction solution (0.1 M Tris-HCl (pH 7.5), 1 mM MnCl2, 5 mM CMP-NeuAc, 50 μM core 1-pNP), and the reaction was initiated. After the reaction was carried out at 37° C. for 30 minutes, the reaction was terminated via boiling, and HPLC analysis was carried out. A Cosmosil 5C18-ARII column (4.6×250 mm, Nacalai Tesque, Inc.) was used, and a mixture of 0.2 M triethylamine-acetic acid (pH 7.0, solution A) and acetonitrile (solution B) (solution A:solution B=9:1) was used as a mobile phase. The column was equilibrated, the sample was injected therein, and elution was carried out 20 minutes thereafter. Detection was carried out using a UV detector (detection wavelength: 300 nm). A core1-pNP substrate was eluted 14.5 minutes later, and a reaction product, sialylcore1-pNP, was eluted 17 minutes later. The reaction product was quantified based on the peak area, and the result was designated as activity (U). The unit “1 U” was defined as the amount of an enzyme that is necessary to produce 1 μmol of the reaction product per minute.
Western blot analysis was then carried out. The culture supernatants in amounts equivalent to “10 μU” of the YT-2 strain and the YT-3 strain were subjected to treatment with EndoHf (NEB, P0703S) in accordance with the protocol, applied, and then subjected to SDS-PAGE. After electrophoresis, the product was transferred to a PVDF membrane, and Western blotting was carried out in accordance with a conventional technique. A mouse anti-FLAG M2 antibody (Sigma, F1804) was used as a primary antibody and an anti-mouse IgG antibody-alkaline phosphatase composite was used as a secondary antibody. Detection was carried out using CDP-Star and an image analyzer, LAS1000 (Fujifilm Corporation). Further, signals were quantified using Image Gauge (Fujifilm Corporation).
The expression vector for various chaperone gene combinations derived from O. minuta prepared in Example 4 was introduced into the YT-1 strain of Example 17. In the same manner as in Example 16, plasmids were cleaved with NotI to transform the YT-1 strain. After transformation, the resultant was applied on SD-Ura medium (2% glucose, 0.17% Yeast Nitrogen Base without amino acids (Difco), nucleic acid bases except for uracil, and amino acid mixture (20 to 400 mg/l)) and culture was carried out at 30° C. for 2 days. Whether or not the expression vector was incorporated into a chromosome was confirmed via colony PCR described in Example 5, an expressed strain having a coexpression vector (onaP09407) carrying two copies of the OmPDI1 expression cassette was designated as the YT-4 strain, an expressed strain having a coexpression vector (onaP09707) for OmPDI1 and OmKar2 was designated as the YT-5 strain, an expressed strain having a coexpression vector (onaP09507) for OmPDI1 and OmERO1 was designated as the YT-6 strain, and an expressed strain having a coexpression vector (onaP09607) for OmPDI1 and OmHSP104 was designated as the YT-7 strain. […]

For data set [5], the target named is T1, human alpha-2,3-sialic acid transferase (ST3GalI). The data set is described as above. It is filed as biochemical. The following applies: Table 2, 30 μl culture supernatant, Western blot signal intensity, with the elapse of time.

“Ona01206: secreted human lysozyme sample from strain into which no chaperone combination was introduced”: in the data set with M. lysodeikticus, the Bacteriolytic activity is 23.0 unit/ml and 22.3 unit/ml and 22.0 unit/ml; the Specific activity is 0.45 unit/mg and 0.42 unit/mg and 0.43 unit/mg.

Take “Ona44607: secreted human lysozyme sample from strain constitutively expressing OmPDI1, OmERO1, and OmKar2”: in the data set with M. lysodeikticus, the Bacteriolytic activity is 33.3 unit/ml and 34.0 unit/ml; the Specific activity was 0.67 unit/mg and 0.65 unit/mg.

With “5-[[3,4-(1-phenylmethoxy)phenyl]methylene]-4-oxo-2-thioxo-3-thiazolidineacetic acid [rhodanine-3-acetic acid derivative 1c]”, the “high-molecular-weight antibody heavy chain (Western blot, reducing electrophoresis)” value in data set [1] (addition of PMT inhibitors to culture, FIG. 6) is reported as “decreased”. The “amount of antibody production” value is given as “approximately 1.9 mg/l” in data set [1] (addition of PMT inhibitors twice (100 μl medium containing 20 μM 1c on day 2 and day 3)); “approximately 1.7 mg/l” in data set [1] (single addition of PMT inhibitors (100 μl medium containing 20 μM 1c on day 3)). For the same molecule, the “increase of amount of antibody secretory production when addition of an O-sugar chain was suppressed” value in data set [2] (1c final concentration 10 μM, versus control culture) was “approximately 2.5 times”. Besides, the “amount of antibody secretory production” value in data set [2] (O-sugar chain addition suppressed (1c final concentration 10 μM), without 1c 3.9 ng/ml, FIG. 14) amounted to 10 ng/mL. Besides, the “improvement of the amount of production” value in data set [3] is “approximately 13%”.

Take “Ona68908: secreted human lysozyme sample from strain expressing synthetic hPDI, synthetic hERO1-Lβ, and synthetic hGRP78”: in the data set with M. lysodeikticus, the Bacteriolytic activity was 36.0 unit/ml and 29.3 unit/ml and 33.3 unit/ml; the Specific activity was 0.68 unit/mg and 0.61 unit/mg and 0.65 unit/mg.

B1: YT-7: ST3GalI culture supernatant from strain coexpressing OmPDI1 and OmHSP104 (protein, UniProt Q11201 1-340, looked up)
CMP-N-acetylneuraminate-beta-g …: MVTLRKRTLKVLTFLVLFIFLTSFFLNYSHTMVATTWFPKQMVLELSENLKRLIKHRPCTCTHCIGQRKLSAWFDERFNQTMQPLLTAQNALLEDDTYRWWLRLQREKKPNNLNDTIKELFRVVPGNVDPMLEKRSVGCRRCAVVGNSGNLRESSYGPEIDSHDFVLRMNKAPTAGFEADVGTKTTHHLVYPESFRELGDNVSMILVPFKTIDLEWVVSAITTGTISHTYIPVPAKIRVKQDKILIYHPAFIKYVFDNWLQGHGRYPSTGILSVIFSMHVCDEVDLYGFGADSKGNWHHYWENNPSAGAFRKTGVHDADFESNVTATLASINKIRIFKGR
As for B1, the Activity is on record as 1.28 mU/ml in data set [4] (listed as YT-7-1), 2.98 mU/ml in data set [4] (listed as YT-7-2), 3.45 mU/ml in data set [4] (listed as YT-7-3) and 3.65 mU/ml in data set [4] (listed as YT-7-4). Besides, the Specific activity in data set [5] (listed as YT-7-1) is listed as 11.4 pU/AU; in data set [5] (listed as YT-7-2), 27.9 pU/AU; in data set [5] (listed as YT-7-3) it was 42.5 pU/AU; in data set [5] (listed as YT-7-4), 57.3 pU/AU.
